Measurements as given in paper PMC3248148, “Hsp90 can Accommodate the Simultaneous Binding of the FKBP52 and HOP Proteins” (Oncotarget, 2011).

How the values were obtained:
[1] = biological target: T1, human Hsp90α (human, UniProt P07900 1-732); test: co-IP; Hsp90α bait held on monoclonal Hsp90 (H90-10) antibody/Protein A-Sepharose beads; p23, FKBP52 and HOP added in the 2:1:2:2 molar ratios; 30°C, 60 minutes; without ATP, with 5mM ATP, 20mM Na2MoO4, and with ATP plus 0.01% dodecyl-maltopyranoside; SDS-PAGE; settings: both partners purified
T1 construct: Hsp90α, human, expressed from pET28b-Hsp90α; Dimer by Sephacryl S-200 SEC; also called Hsp90 dimer; source: E. coli BL21 (DE3), purified (Ni2+ HisTrap, Q-Sepharose, Sephacryl S-200)

[2] = biological target: the molecule itself; test: SEC; HiPrep Sephacryl S-200; each protein alone; 50mM Hepes, 150mM NaCl, 50mM KCl, 10mM MgCl2, 1mM DTT, pH 7.5; molecular weight interpolated from standards
[3] = biological target: T1, human Hsp90α; test: native gel or EMSA; 7.5% Native-PAGE, no detergents, reducing or denaturing agents in the gel buffers; mixtures incubated at 30°C for 60 minutes; with and without 5mM ATP, 20mM Na2MoO4; with and without 0.01% dodecyl-maltopyranoside; settings: both partners purified

B1: human p23 co-chaperone (natural protein, UniProt Q15185 1-160, looked up)
chain: MQPASAKWYDRRDYVFIEFCVEDSKDVNVNFEKSKLTFSCLGGSDNFKHLNEIDLFHCIDPNDSKHKRTDRSILCCLRKGESGQSWPRLTKERAKLNWLSVDFNNWKDWEDDSDEDMSNFDRFSEMMNNMGGDEDVDLPEVDGADDDSQDSDDEKMPDLE
notes: p23 co-chaperone, human, untagged, expressed from pET23-p23; Eluted from Sephacryl S-200 as dimer and monomer; monomer by DLS; source: E. coli BL21 (DE3), purified (DEAE FF, Q-Sepharose, Sephacryl S-200)
- binding result [1]: binds

B2: human FKBP52 (52 kDa immunophilin FK506-binding protein) (natural protein, UniProt Q02790 1-459, looked up)
chain: MTAEEMKATESGAQSAPLPMEGVDISPKQDEGVLKVIKREGTGTEMPMIGDRVFVHYTGWLLDGTKFDSSLDRKDKFSFDLGKGEVIKAWDIAIATMKVGEVCHITCKPEYAYGSAGSPPKIPPNATLVFEVELFEFKGEDLTEEEDGGIIRRIQTRGEGYAKPNEGAIVEVALEGYYKDKLFDQRELRFEIGEGENLDLPYGLERAIQRMEKGEHSIVYLKPSYAFGSVGKEKFQIPPNAELKYELHLKSFEKAKESWEMNSEEKLEQSTIVKERGTVYFKEGKYKQALLQYKKIVSWLEYESSFSNEEAQKAQALRLASHLNLAMCHLKLQAFSAAIESCNKALELDSNNEKGLFRRGEAHLAVNDFELARADFQKVLQLYPNNKAAKTQLAVCQQRIRRQLAREKKLYANMFERLAEEENKAKAEASSGDHPTDTEMKEEQKSNTAGSQSQVETEA
notes: FKBP52, human, expressed from pET28b-FKBP52; Dimer in solution by SEC and DLS; The gene is printed as Fkbp4, of the mouse; source: E. coli BL21 (DE3), purified (Ni2+ HisTrap, Q-Sepharose, Sephacryl S-200)
- stoichiometry N [2]: 2
- stoichiometry N [3]: 0.5 FKBP52 per Hsp90 chain (1:2)
